These results are taken from patent US20250215091A1, “Anti-GAL3 Antibodies and Compositions” (Les Laboratoires Servier, priority 2022, published 2025).

Test [1] concerns murine model of HOCI-induced fibrosis. Put plainly: HOCI-induced murine fibrosis model: skin and lung collagen (Picrosirius red). The test is classed as in vivo, mice. To be noted: first experiment; for lung collagen levels: day 42, FIG. 8A; for skin collagen levels: day 42, vs HOCI group, FIG. 8B. As to the method: (§1) In a first experiment, control mice (n=12) received a daily intradermal injection of 300 μL of sterile phosphate buffer saline (PBS) for 5 consecutive days per week, for a duration of 42 days. HOCI alone and HOCI with antibody (HOCI-antibody) treated mice (n=12 per group) received a daily intradermal injection of 300 μL of HOCI for 5 consecutive days per week, for a duration of 42 days. Antibody-treated mice also received a subcutaneous injection of 20 mg/kg antibody, starting at day minus one and every 5 days between day 5 and day 40. Each antibody was solubilized in sterile, endotoxin-free PBS before injection. In a second experiment, the same protocol was applied, except that duration of the study was 63 days and antibodies were given every 7 days starting at day minus 1 until day 62.
(§2) Mice that received daily injection of HOCI were also treated by intratracheal instillation of 0.5 mg/kg of TD139 compound (HOCI-TD139), a small molecule Gal3 inhibitor. In a first experiment, the administrations started from day 21 and the compound was given every 3 days until day 39. In a second experiment, the administrations started from day 20 and the compound was given every 3 days until day 62. TD139 was initially dissolved in 100% DMSO then diluted 50-fold in endotoxin-free PBS before administration.
At the day of study termination of the first experiment (day 42), skin and lung samples were taken, formalin-fixed and processed to individual paraffin wax blocks. Sections of skin and lung were cut from the blocks and, after rehydration, stained with Picrosirius Red coloration according to the manufacturer's protocol. Subsequently, each slide was examined and remotely analyzed employing the web-based Image J software

In test [2] the test system is genes differentially regulated between HOCI group and control group in whole blood cells. Put plainly: HOCI-induced murine fibrosis model: whole blood RNA sequencing. It is filed as in vivo, mice. The note with it: of 510 genes differentially regulated HOCI vs control; day 42, whole blood. Here is the method:
as §1, §2
In the first experiment, global gene expression was examined at day 42 in whole blood cells by RNA sequencing.
Whole blood was collected in RNA protect tubes (Qiagen) and were processed for RNA extraction using the RNeasy Protect Animal blood kit with the optional on-column DNAse I digestion. Total RNA samples were quantified on Nanodrop 2000 (ThermoFisher Scientific™) and analyzed on Bioanalyzer (Agilent) using RNA 6000 Nano chips to determine RNA quality (RIN). Total RNA matching the QC criteria were included in the study. Purified RNA samples were used as input for the TruSeq Strand-specific RNA-seq (poly A selection and globin depletion) according to manufacturer's protocol (Illumina). […]
Raw reads were processed using the in-house RNAExp Expression pipeline 2.1 and the quality was assessed using FastQC tools. Then, reads were trimmed for adaptors using Cutadapt and trimmed reads were aligned to mouse mm39 reference genome using the STAR aligner. Aligned data were evaluated for quality using Samtools and Picard tools. Then, aligned reads per gene were quantified using FeatureCount. […] Read count were normalized by the variance stabilizing transformation vst function from DESeq2 R package.
55,416 genes were detected in the data. […] Genes differentially expressed between groups were determined using a linear model (ImFit function from limma R package) on vst transformation gene expression dataset. […]

The next test deals with plasma IL-6. Put plainly: HOCI-induced murine fibrosis model: plasma IL-6 (MSD). The test is classed as in vivo, mice. The note with it: first experiment, day 42; vs HOCI group; FIG. 9. As to the method:
as §1, §2
(§3) In the first experiment, a mixed effect model with repeated measurements was performed on Control group, HOCI treated group, HOCI-antibody- and HOCI-TD139-treated groups. The impact of HOCI administration on plasma IL-6 and IL-5 levels was evaluated compared to the control group. The impact of antibody and TD139 treatments was compared to the HOCI group (FIG. 9). IL-6 and IL-5 were quantified by using the MSD technology from Mesoscale.

Test [3] concerns murine model of bleomycin-induced fibrosis. Nature of the test: Bleomycin-induced murine lung fibrosis model: Modified Ashcroft fibrosis score. It is filed as in vivo, mice. Here is the method:
(§4) Control bleomycin mice named ‘Bleo’ received an administration of 1.65 mg/kg bleomycin by the oropharyngeal route on Day 1. […] Antibody-treated mice also received an administration of 1.65 mg/kg bleomycin by the oropharyngeal route on Day 1 and a subcutaneous injection of 20 mg/kg antibody, starting on day minus one and on days 4, 8, 12, 16 and 20. Each antibody was solubilized in sterile, endotoxin-free PBS before injection. Mice that received bleomycin were also treated by oropharyngeal administration of 0.5 mg/kg of TD139 compound (Bleo-TD139), a small molecule Gal3 inhibitor, starting on day 12 and every 2 days until day 20. TD139 was initially dissolved in 100% DMSO.
Mice were submitted for terminal euthanasia on day 21. The lungs were collected for histopathological examination and gravity inflation-fixed with 10% neutral buffered formalin (NBF) before being immersion fixed in NBF.
Sections were taken and then placed on three slides as indicated by the code numbers on FIG. 14.
Three longitudinal sections parallel to and bisecting the main stem bronchus were trimmed from the left lung and right caudal lung lobes and mounted in cassettes 01 and 02, respectively. The right cranial, middle and accessory lung lobes were sectioned longitudinally and mounted in cassette 03. All sections were stained with picrosirius red and scored in a blinded manner by a certified veterinary pathologist using the Modified Ashcroft fibrosis score (0-8), where “0” corresponds to “normality (no fibrosis) and “8” corresponds to the highest possible fibrosis score, as described by Hübner et al. (2008) but based on assessment across the whole section of lung.

The test system of a further test is plasma IL-5. Nature of the test: HOCI-induced murine fibrosis model: plasma IL-5 (MSD). It is filed as in vivo, mice. To be noted: first experiment, day 42; vs HOCI group; FIG. 9. As to the method: as §1, §2, §3
The subject of test [4] is murine model of HOCI-induced fibrosis. Put plainly: HOCI-induced murine fibrosis model: skin thickness. The test is classed as in vivo, mice. The note with it: first experiment; for HOCI-induced increase in skin thickness: 42 days, antibody 20 mg/kg s.c., TD139 0.5 mg/kg intratracheal, vs HOCI group, FIG. 7A. As to the method: as §1, §2
The evolution of skin thickness was monitored by using an external caliper, every seven days until sacrifice.

Test [5] has as its system murine model of bleomycin-induced fibrosis. Put plainly: Bleomycin-induced murine lung fibrosis model: body weight and body weight metrics. It is filed as in vivo, mice. The note with it: for reduction of median Time to baseline (TTB): median TTB 20 days for untreated bleomycin group; for reduction of median Time to baseline (TTB) / reduction of median Time to weight growth (TWG): FIG. 13; for reduction of median Time to weight growth (TWG): median TWG 10 days for untreated bleomycin group; for mean percent weight increase on day 21 compared to day minus 1: untreated bleomycin group +1.9%, control mice 6.4%. As to the method: as §4
Mice were weighed daily. Their growth curves are represented on FIG. 12. Control mice had normal growth with a mean percent increase of 6.4% of their initial body weight measured on day minus 1.
Body weight metrics were assessed by using two parameters called Time to weight growth (TWG) and Time to baseline (TTB), shown on FIG. 13. Time to weight growth corresponds to the point of inflection when mice show an ascending growth curve and start to regain weight within the course of the experiment. Time to baseline corresponds to the number of days required for mice to recover their initial body weight (day minus 1). The median TWG was 10 days for the untreated bleomycin group. […] TD139 compound had no efficacy on this parameter (p-value 0.53).

For the next test, the system named is plasma Gal3. Put plainly: HOCI-induced murine fibrosis model: plasma Gal3 (ELISA). It is filed as in vivo, mice. The note with it: first experiment, day 42; FIG. 10. Here is the method:
as §1, §2
In the first experiment, the plasma levels of Gal3 were measured at day minus 1 (before antibody administration) and at termination day (day 42) using a mouse Galectin-3 DuoSet ELISA kit (R&D Systems, DY1197) according to the manufacturer's instructions. Plasma samples were diluted 1:200 in order to fit with the dynamic range of the assay.

The subject of test [6] is rat model of ARDS. Put plainly: Rat ARDS model (LPS challenge): total BALF protein (BCA assay). The test is classed as in vivo. The note with it: antibodies 14 mg/kg x3 prior to LPS; dexamethasone 10 mg/kg oral; vs LPS group; FIG. 17. Here is the method: (§5) Positive control rats received 3 doses of sterile phosphate buffer at day minus 11, minus 6 and minus 1 prior LPS challenge (0.25 mg/kg by subcutaneous route at day 1). Negative control rats received one oral dose of Dexamethasone at 10 mg/kg (dissolved in 0.5% carboxymethyl cellulose in deionized water) 2 hours prior LPS challenge (0.25 mg/kg by subcutaneous route at day 1). LPS (lipopolysaccharide) causes an acute inflammatory response, whereas dexamethasone has anti-inflammatory effects thus being the reference treatment in this model.
(§6) Antibody-treated rats received 3 doses of antibodies (14 mg/kg) at day minus 11, minus 6 and minus 1 prior to LPS challenge (0.25 mg/kg by subcutaneous route at day 1). Each antibody was solubilized in sterile PBS before injection.
(§7) Control rats of the experiment received 3 doses of sterile phosphate buffer at day minus 11, minus 6 and minus 1 without LPS challenge at day 1.
The impact of anti-Gal3 antibody treatment in LPS challenged rats were evaluated by quantification of proteins (by BCA assay) in BALF and compared to the positive control group (LPS challenge with PBS treatment) (FIG. 17). The presence of protein in BALF reflects the damage to the air-blood barrier. […] Total BALF protein numeration levels were decreased after treatment with anti-inflammatory dexamethasone.

The test system of test [7] is rat model of ARDS. Nature of the test: Rat ARDS model (LPS challenge): neutrophils counts in BALF. To be noted: antibodies 14 mg/kg x3 prior to LPS; dexamethasone 10 mg/kg oral; vs LPS group; FIG. 16. The test is classed as in vivo. As to the method: as §5, §6, §7
The impact of anti-Gal3 antibody treatment in LPS challenged rats were evaluated by quantification of neutrophils in Bronchoalveolar Lavage Fluid and compared to the positive control group (LPS challenge with PBS treatment) (FIG. 16). […] Neutrophils numeration levels were decreased after treatment with anti-inflammatory dexamethasone.

Another test concerns plasma TNF alpha. Put plainly: Rat ARDS model (LPS challenge): plasma TNF alpha (MSD). The note with it: 4 h following LPS challenge; vs LPS group; FIG. 18. It is filed as in vivo. Here is the method: as §5, §6, §7
For all rats, plasma sampling was performed 4 h following LPS challenge.
The impact of anti-Gal3 antibody treatment in LPS challenged rats were evaluated on plasma cytokine levels, namely TNF alpha and KC-GRO cytokines, and compared to the positive control group (LPS challenge with PBS treatment) (respectively FIG. 18A and FIG. 18B). TNF alpha and KC-GRO were quantified by using the MSD technology from Mesoscale.

Regarding `OC[C@H]1O[C@@H](S[C@@H]2O[C@H](CO)[C@H](O)[C@H](n3cc(-c4cccc(F)c4)nn3)[C@H]2O)[C@H](O)[C@@H](n2cc(-c3cccc(F)c3)nn2)[C@H]1O` [TD139, reference compound], in [1], the lung collagen levels entry was “restored lung collagen levels to those of control mice” and the skin collagen levels result is listed as “significantly reduced”. In addition, in [2], the “number of HOCI-dysregulated genes counteracted by treatment” value is listed as 7 genes and the “percentage of HOCI-dysregulated genes counteracted by treatment” value was determined as 1.37%. In the test with plasma IL-6, the “plasma IL-6 levels” value was “no activity”. In [3] (day 21), the “mice having a lung fibrosis score of 2 and 3” value was found to be 50.6%. In addition, the “mice having a lung fibrosis score of 4 and 5” value in [3] (day 21, 49.3% for untreated bleomycin group) came out at 49.4%. Besides, the “attenuation of lung fibrosis (overall)” value in test [3] (day 21, FIG. 15) is “did not show any sign of anti-fibrotic efficacy”. The “plasma IL-5 levels” value in the test on plasma IL-5 is recorded as “decreased significantly”. For the same molecule, in test [4], the “HOCI-induced increase in skin thickness” value is “lower decrease in skin thickness than with either antibody, reaching statistical significance only at days 28 and 42”. For the same molecule, in test [5], the “reduction of median Time to baseline (TTB)” value was “no efficacy”, the “reduction of median Time to weight growth (TWG)” value was “no efficacy” and the “mean percent weight increase on day 21 compared to day minus 1” value is reported as 2.9%. Besides, the “plasma Gal3 levels” value in the test on plasma Gal3 is given as “restored the plasma Gal3 levels to values similar to those of the control group”.

B1: D11: anti-Gal3 monoclonal antibody, IgG1 format; VH SEQ ID NO 40, VL SEQ ID NO 41 (antibody, V domains shown)
VH: EVQLVESGGSLVKPGGSLRLSCAASGFTFSNYNMNWVRQAPGKGLEWISSIYGSSRYIYYADFVKGRFTISRDNAKNSLYLQMNSLRAEDTAVYYCVRSSYGGMDVWGRGTLVTVSS
VL: QSVLTQPASVSGSPGQSITISCAGTSSDVGGSYNVAWYQQHPGKAPKLMIYYDSYRPSGVSNRFSGSKSGNTASLTISGLQAEDEADYYCSSYTGYSTRVFGGGTKLEIK
modifications: IgG1 constant region
Take B1: the “total BALF protein” value in the test with rat model of ARDS [6] is listed as “also decreased”. In addition, in [1], the lung collagen levels result is “restored lung collagen levels to those of control mice” and the skin collagen levels result is “significantly reduced”. Further, the “neutrophils counts in BALF” value in the test with rat model of ARDS [7] is recorded as “also decreased”. Further, in the test on plasma IL-6, the “plasma IL-6 levels” value is listed as “significantly decreased the plasma IL-6 levels to values similar to those of control mice”. The “frequency of animals with fibrosis score of 2” value in [3] (day 21, 7.4% in untreated bleomycin group) came out at 17.8%. The “frequency of animals with fibrosis score of 3” value in test [3] (day 21, 43.2% for bleo group) is reported as 61.1%. For the same molecule, the “frequency of animals with fibrosis score of 4” value in test [3] (day 21, 44.4% in bleo group) is on record as 20%. Also, the “plasma IL-5 levels” value with plasma IL-5 is “decreased significantly”. Further, the “HOCI-induced increase in skin thickness” value in [4] is recorded as “significantly reduced”. In addition, the “day from which reduction of skin thickness was significant” value in [4] (sustained effect until day 42) was 21 days. In addition, in test [5], the “reduction of median Time to baseline (TTB)” value worked out at 2.7 days, the “reduction of median Time to weight growth (TWG)” value is recorded as 1.3 days and the “mean percent weight increase on day 21 compared to day minus 1” value worked out at 4.4%. Moreover, in the test on plasma Gal3, the “plasma Gal3 levels” value was “restored the plasma Gal3 levels to values similar to those of the control group”. For the same molecule, the “TNF alpha plasma levels” value with plasma TNF alpha was “also decreased, displaying an intermediary profile”.
